{"source": "paper PMC7424061", "origin": "cited, not measured here", "biological_target": "p53 TAD (Homo sapiens) (UniProt P04637)", "sequence (P04637 1-61)": "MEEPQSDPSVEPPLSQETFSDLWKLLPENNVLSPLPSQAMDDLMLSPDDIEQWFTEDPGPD", "data": [{"substance": "azurin (from UniProt P00282)", "values": [{"measurement": "Kd", "value": 7, "unit": "µM"}]}]}
